Data reported in paper PMC9519379 (Cell Reports Medicine, 2022).
Where “and” joins values, the source holds several entries; their conditions need not be identical. Identical values can stand only once.

Target: the molecule itself

B1: H84T-banana lectin (H84T-BanLec) (designed binder)
chain: MNGAIKVGAWGGNGGSAFDMGPAYRIISVKIFSGDVVDAVDVTFTYYGKTETRHFGGSGGTPHEIVLQEGEYLVGMKGEFGNYTGVVVVGKLGFSTNKKSYGPFGNTGGTPFSLPIAAGKISGFFGRGGDFIDAIGVYLEP
B1 was tested. Which “stoichiometry N” value did it give?
The value was 2 and 4.
